Laboratory results published in the RNAGym collection of RNA variant scans (doi:10.1073/pnas.2313332121).
Variants at the floor of the assay were thinned out.

B1: TPR 5TU (parent)
chain: GGAUCUUCUCGAUCUAACAAAAAAGACAAAUCUGCCACAAAGCUUGAGAGCAUCUUCGGAUGCAGAGGCGGCAGCCUUCGGUGGCGCGAUAGCGCCAACGUUCUCAACUAUGACACGCAAAACGCGUGCUCCGUUGAAUGGAGUUUAUCAUG

Variants of: B1
Assay: polymerase ribozyme fitness, log enrichment relative to wild type (log ratio); higher = more active; in vitro selection for triplet polymerase activity
Method in brief: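 Each subunit of a heterodimeric triplet polymerase ribozyme was represented by a PCR-built, transcribed mutant library that underwent triplicate single-round in vitro selection with frozen incubation at −7 °C. Extended constructs were recovered by gel excision, streptavidin-bead capture and RT-PCR, and Illumina sequencing of input and output libraries kept genotypes with ≥10 input reads and ≥1 read per output. Fitness is the logarithm of genotype enrichment relative to wild-type enrichment, from inverse-variance-weighted replicate averages, with a logarithm base of 2.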

Row | Variant | polymerase ribozyme fitness (log ratio)
1 | U31G A40U G42A C85A U148C | ≤ -4.2
2 | U33C G141A | -2.97
3 | A30C G42U C54U C63G G68A C93U A121G G140A | ≤ -4.2
4 | C32G G46U A47C G59A | -4.03
5 | U31C G81C C85U C99G | -0.592
6 | C32A A37C C54G G83A C118A G136U A138C G141C U145G | ≤ -4.2
7 | U31A C32G C72G A150U | ≤ -4.2
8 | G34C C93U A98U | -3.85
9 | U31C A49U G74A G84U G117C G133U A142C | ≤ -4.2
10 | C32G A64U C105U G152U | ≤ -4.2
11 | U31A C63U G84A C103A G112A A137U G152U | ≤ -4.2
12 | C32U C38U G58C | -2.43
13 | U33A A120U | -4.01
14 | U33A A73U C85U U127G | -2.45
15 | A30C C54U G70U C93A A120U U130A A138G | ≤ -4.2
16 | A30G C79U G140C | ≤ -4.2
17 | U33C G42A C93U C108U | ≤ -4.2
18 | C35A A60C A66U A120U U146C A150U | ≤ -4.2
19 | C32A G84A A89G A97G U134A U148A | ≤ -4.2
20 | A30G C38U G48A A66C G80U G84A C105G U109A C125A | ≤ -4.2
21 | C32U C54G C85A A119U G126A C149A | ≤ -4.2
22 | G34A G88C A115C A137G | ≤ -4.2
23 | A30U C85A C95A C125A U148A | ≤ -4.2
24 | A30G G46A G70C U78G G86C A142C U146A | ≤ -4.2

Row | Variant | polymerase ribozyme fitness (log ratio)
25 | C32G U53A G86C A91C A120U A121U | ≤ -4.2
26 | A30G A64C A66U C99U U102A G117A U145G | ≤ -4.2
27 | C32U G81C C114G | ≤ -4.2
28 | U33G A47U A49G C75A C76U A91U C93G A98U C114A G136C | ≤ -4.2
29 | U31C G48A C79A C105U A120G G141U A147C | ≤ -4.2
30 | U31A G50A C57U C85U A119C | -1.76
31 | A30G C38U C54G C72G C75G C96G A147U | ≤ -4.2
32 | U31A C75G C76G G83U C95U A115U | ≤ -4.2
33 | A30G A106U A115U C116A A120G | ≤ -4.2
34 | C32G G48A G67U C85U C93G U145G | ≤ -4.2
35 | U33G A47G G81A | -4
36 | U31A G58U U146G | -0.274
37 | C32A G71U A91G A119G A120U U127C G136C | ≤ -4.2
38 | U31C G48C G94C A106U | ≤ -4.2
39 | G34U G48U G59C G67C G81C U134A G141U | ≤ -4.2
40 | U31A C69A G92U A115U | -3.26
41 | U33C C54A U55A G83A C96A C125G G126C U127G | ≤ -4.2
42 | U31G U33A A89G U144C U146A | -4.01
43 | U31A C79U | -2.71
44 | U33A U55G A73G G83U G86U A89U G136A | ≤ -4.2
45 | U31C A49C C93G U135G G143A | ≤ -4.2
46 | A30G C63A C99U | ≤ -4.2
47 | U31C G83C A107U | -4
48 | C35A A39G | ≤ -4.2

Row | Variant | polymerase ribozyme fitness (log ratio)
49 | U31C A40C A41C | -0.373
50 | C32G G50A C63U A91G C125G A147G | ≤ -4.2
51 | U31G A37C C95U U109G G143U G152C | ≤ -4.2
52 | U31G A113U U134G | -3.56
53 | U33C C105G | -4.2
54 | C32G C76A C99A | -4.15
55 | A30U U56A G58C C132A A147U | ≤ -4.2
56 | A30G A47G G71C C87G U135G | ≤ -4.2
57 | U33A G46U A107G | -4.18
58 | A30U U45G G50A A66G A113G G152A | ≤ -4.2
59 | A30G A60C G67U G68U G84U G117A U139A | ≤ -4.2
60 | C32G A40U C95A | -3.93
61 | C32A A39G G50U U55A A73U C75A A138U | ≤ -4.2
62 | U31A C93U A121U | -0.469
63 | U31A A40U A49C U61A C76G C85U | ≤ -4.2
64 | U31G C36U U53A G58C C69U G83U C118A U134A G143C G152U | ≤ -4.2
65 | C32A U45A G80C C87G U90G G152U | ≤ -4.2
66 | A30U G42U G65A G86U A121U | ≤ -4.2
67 | A30U A39C A49C U104C C125G | ≤ -4.2
68 | U31A C51G C54U A122G | -2.68
69 | C32U C116G | -2.9
70 | C32U G65A G71C G94U | ≤ -4.2
71 | A30G A37U G50A G83C | ≤ -4.2
72 | G34U A39U G48A U77G C79G C95U | ≤ -4.2

Row | Variant | polymerase ribozyme fitness (log ratio)
73 | U31C U45G G46C G83U G94C A115U A119C A142U A150U | ≤ -4.2
74 | U31G A73G G84A | 0.0111
75 | C32A A49U C72A C85A U90G A98G A120C U151A | ≤ -4.2
76 | A30U G50C G71C A107G | ≤ -4.2
77 | U31C A52U G58A C95G U145A | -3.19
78 | U31G A39G C85U G94C | -3.27
79 | U33A C105U | -3.8
80 | U31G G46C A60U A73G C76G C79U G92A C93U C96G U135G | ≤ -4.2
81 | C32G G58A C93A G128A | -4.2
82 | U31A C93A C129U | -2.44
83 | A30U U56G G58U A73G C85U C105U G141C | ≤ -4.2
84 | U31G G92U U127G | -4.07
85 | A30C C51U G58U G80A | ≤ -4.2
86 | C32G U56A C57U C76A C93A C118G U135C | ≤ -4.2
87 | U33C C57U U61A G84A U101G G140U U145A | -4
88 | C32G U53G A73C C131A A142G | ≤ -4.2
89 | U33C G59C A64G C96G U130C | ≤ -4.2
90 | U31G G46C C79U G117C U144C | ≤ -4.2
91 | U31C C95U A97U C99U G133U A150G | ≤ -4.2
92 | U31A G143A | -0.454
93 | U31A C85U U101A A150U | -1.46
94 | A30U G86A C96U A107U A142U C149G | ≤ -4.2
95 | U33C C38G C93G A137G G141C | ≤ -4.2
96 | U31A U78A C123G U135G G140U | ≤ -4.2

Row | Variant | polymerase ribozyme fitness (log ratio)
97 | A30U U33C C36G U56A C85U C114G | -3.84
98 | U33G C57G U104G | ≤ -4.2
99 | A30U G100U | ≤ -4.2
100 | C32A G74U C85A A98U | -0.754
101 | C32U C96U C149U U151A | ≤ -4.2
102 | U33C A37C A64U | ≤ -4.2
103 | U33A C51U C57G C75G C93U C125A G140U | ≤ -4.2
104 | A30U G80A G81U C85U U104A C105G | ≤ -4.2
105 | U31G G83U | -0.727
106 | U31C U45C A49U G80A C114A U130C U134A | ≤ -4.2
107 | A30C G83C U101G A121U | ≤ -4.2
108 | U31G U33G U61G C72U C87G A106C U135G | ≤ -4.2
109 | G34C G94C | -3.85
110 | C32G A73U A97U A120G G126A | ≤ -4.2
111 | C32G U45A U56A A91U C93G A107C | ≤ -4.2
112 | U33A A52G C85A C95A U148C U151A | ≤ -4.2
113 | G34C G42A G86A U148C | ≤ -4.2
114 | U33G U53A G59C G84A G94A C125G U144C | ≤ -4.2
115 | U31G C95U G126C | 0.488
116 | U33G G94A | -3.04
117 | U33G G48A U61A A121U A142G | -3.95
118 | U33A A98G G124C | ≤ -4.2
119 | G34A U55G | -0.61
120 | A30G C38A U56A A107U A121C | ≤ -4.2

Row | Variant | polymerase ribozyme fitness (log ratio)
121 | A30C G71U A98G C103G | ≤ -4.2
122 | C32U C36G A39U G59U A120G | -4.07
123 | C35A A47C | -3.11
124 | A30G C75G U82C C99A | ≤ -4.2
125 | A30U C95A | -3.34
126 | G34A G70A A89G A122G | -4.01
127 | U33G C96A | -1.72
128 | A30C C38U G74A | ≤ -4.2
129 | A30G A60C A110G A113U A150G | ≤ -4.2
130 | G34A U82G C96A C99G | ≤ -4.2
131 | U31G G50C G58U G88U | ≤ -4.2
132 | C32A A37G U61G G94U G124U | ≤ -4.2
133 | A30C U31A C75A C79A U144A | ≤ -4.2
134 | U33C U53G U77A G143C | ≤ -4.2
135 | U33A C63U C93A A97G G126C | ≤ -4.2
136 | U31C C87A C108U U148C | -3.95
137 | U31A A91G A106G G117A A119U U146C | -1.71
138 | U33G C54A C96A A98U | -4.06
139 | A30U A39U G62A G70A A89C C129A A142C | ≤ -4.2
140 | A30G C123U G133U C149G | ≤ -4.2
141 | A30U G58C C95U U135C U144A | ≤ -4.2
142 | G34A C85A | -3.37
143 | A30C G46C A73G G80C G84A A91G | ≤ -4.2
144 | G34C G83A A91U U102C G112U A113U A142C | ≤ -4.2

Row | Variant | polymerase ribozyme fitness (log ratio)
145 | G34A U55A A91G G117U | -4.06
146 | C32A G94A | -4
147 | U31C C76G U109G A119G G141C | ≤ -4.2
148 | U31C A89C C93U U135A | -2.87
149 | C32A C54A U130A | ≤ -4.2
150 | G34A G71A G88C A91C | ≤ -4.2
151 | C32G A91G | ≤ -4.2
152 | A30C C79U A119U C129G U134G A150G | -4.04
153 | G34U C96G U144C | ≤ -4.2
154 | U31C C51A G74U G84A C87A A113G A115C | ≤ -4.2
155 | U31C A41U G48C U55G A89U | -2.77
156 | U31G A60C | -1.23
157 | U31G A60U | 0.29
158 | G34C C69G C85G C105A | ≤ -4.2
159 | G34U A60C C108G A150C | -4.17
160 | A30G G71C U78A C95G A115C | ≤ -4.2
161 | U33C U82A | -2.77
162 | C32U A66G A98U | -4.11
163 | A30C U44A C51U U77C C131G | ≤ -4.2
164 | U31A A49C U82G G84C U127G C131U U151A | ≤ -4.2
165 | U31C U148A | -2.56
166 | A30U C93U | -3.92
167 | A30U A41G A142G | -3.58
